To fix the notation:
B1: CPEB3 Ribozyme (parent)
chain: GGGGGCCACAGCAGAAGCGUUCACGUCGCGGCCCCUGUCAGAUUCUGGUGAAUCUGCGAAUUCUGCUGU

This series covers variants of B1. The series can be described thus: self-cleavage, relative activity (ratio to wild type); higher = more cleavage; co-transcriptional.
For the variant U26G G65C, the self-cleavage turned out to be 0.646.

Regarding U26G G65A, the self-cleavage is 0.643. As to C27G U67G, the self-cleavage amounted to 0.255. Consider C27G U67A, for which the self-cleavage was 0.166.

Turning to C27G U67C, the self-cleavage turned out to be 0.247. Regarding U26G U62C, the self-cleavage was found to be 0.674.

Turning to U26C U36C, the self-cleavage amounted to 0.88. For the variant U26C U36A, the self-cleavage stood at 0.153.

Regarding U26G G37U, the self-cleavage stood at 0.185. To U26G G37A belongs 0.21; to C27G C45G, 0.144; to C27G C29G, 0.208.

In the case of C27A U46A, the self-cleavage came out at 0.736. To C27A U46G belongs 0.725. For U26C U49G, the self-cleavage worked out at 1.01.

U26C U49C: the self-cleavage was 0.932. The figure for C27G is 0.197; for C27U it is 0.417; for C27A it is 0.711. The figure for U26G C57G is 0.172; for U26G C57A it is 0.339; for C27A U67A it is 0.685. To C27A U67C belongs 0.66. As for C27A A60U, the self-cleavage came to 0.249. To C27A A60G belongs 0.253. For U26C G65A, the self-cleavage was 0.713. U26C G65C: the self-cleavage stood at 0.547. The figure for U26G U44C is 0.866; for U26G U44A it is 0.925; for U26G U44G it is 0.811. The figure for U26G U38A is 0.375; for U26G U38G it is 0.171. With U26G U38C, the self-cleavage was found to be 0.664.

With C27G U61A, the self-cleavage was 0.19. In the case of C27G G47C, the self-cleavage stood at 0.226. The figure for U26G is 0.924; for U26G G41C it is 0.561.

Regarding U26G G41A, the self-cleavage worked out at 0.539. With C27A G58A, the self-cleavage was 0.377. The figure for C27A G58U is 0.727.

Regarding U26C U69A, the self-cleavage worked out at 1.01. To U26C U69C belongs 1.06; to C27G U38C, 0.243.

In the case of C27G U38A, the self-cleavage came out at 0.191. The figure for U26G U53A is 0.782. The figure for U26G U53G is 0.778. For the variant U26G U53C, the self-cleavage stood at 0.768. On to U26G C54U, for which the self-cleavage was determined as 0.931. The figure for U26G C54G is 0.694. To U26G C54A belongs 0.708. With C27A A59C, the self-cleavage was determined as 0.247. To C27A A59U belongs 0.245. In the case of C27A U43A, the self-cleavage came to 0.18. The figure for C27A U43G is 0.226. To U26G A51G belongs 0.787. Consider U26G A51U, for which the self-cleavage turned out to be 0.871.

As for U26G A51C, the self-cleavage is 0.838.

In the case of C27A G56C, the self-cleavage came to 0.187.

Regarding C27A G56U, the self-cleavage is 0.371. The figure for C27G U62A is 0.122; for C27G U62G it is 0.241; for C27G U62C it is 0.257. To C27G A42G belongs 0.15; to C27G A42C, 0.177. The figure for C27U C33U is 0.345; for C27U C33G it is 0.206. For C27U C33A, the self-cleavage turned out to be 0.271. U26G U55G: the self-cleavage worked out at 0.404. The figure for C27A C32A is 0.241; for C27A C32G it is 0.155. The figure for C27G A52U is 0.132. With C27G A52C, the self-cleavage amounted to 0.191.

For C27G A52G, the self-cleavage was 0.24.

Turning to C27A G68A, the self-cleavage turned out to be 0.853. The figure for U26C G58A is 0.937; for U26C G58C it is 0.963; for U26C G58U it is 0.993. Turning to U26C U44G, the self-cleavage was 1.02. To U26C U44A belongs 0.953. The figure for U26C U44C is 0.941. As to C27A C34G, the self-cleavage came out at 0.219. C27A C34A: the self-cleavage worked out at 0.164. For C27A C34U, the self-cleavage worked out at 0.52.

For U26G G56U, the self-cleavage amounted to 0.814. Take U26G G56A: the self-cleavage came out at 0.729. To U26G G56C belongs 0.356. Regarding C27A C35A, the self-cleavage was 0.209. As to C27A C35U, the self-cleavage came out at 0.441. Regarding C27G C63U, the self-cleavage was determined as 0.209. On to C27G C63G, for which the self-cleavage amounted to 0.225.

Regarding U26G G68A, the self-cleavage was 1.01. To U26G G68U belongs 0.968; to U26G G68C, 0.932. On to C27A U38C, for which the self-cleavage worked out at 0.324.

C27A U38A: the self-cleavage turned out to be 0.26.

For the variant C27G U69C, the self-cleavage stood at 0.374. Regarding C27G U69A, the self-cleavage came out at 0.267. The figure for C27A C57U is 0.173; for C27A C57A it is 0.189; for U26G C39A it is 0.406.

With U26G C39G, the self-cleavage amounted to 0.756.

For the variant U26G C39U, the self-cleavage is 0.731. To U26G A60U belongs 0.393.

With U26G U49G, the self-cleavage was 0.907. The figure for U26G U49C is 0.924; for C27G G65A it is 0.141. To C27U A60C belongs 0.192. The figure for C27U A60G is 0.254. As for C27A C29G, the self-cleavage is 0.195. The figure for U26G G31A is 0.555. To C27G C66A belongs 0.174; to C27G C66U, 0.156. For C27A U64G, the self-cleavage turned out to be 0.319. The figure for C27A U64A is 0.286; for C27A C54A it is 0.25. To C27G C34U belongs 0.223. On to C27G C34G, for which the self-cleavage was found to be 0.142.

As for C27G U55G, the self-cleavage came to 0.159.

Turning to C27G U55A, the self-cleavage was determined as 0.142. The figure for U26G U61G is 0.558. To C27G G68U belongs 0.309; to C27G G68C, 0.234; to C27G G31C, 0.174. To C27G G31A belongs 0.174. Consider C27A C33U, for which the self-cleavage worked out at 0.539.

Consider C27A C33G, for which the self-cleavage came to 0.224.

Regarding C27A C33A, the self-cleavage turned out to be 0.288. For the variant C27U A40U, the self-cleavage is 0.207. To C27U A40G belongs 0.192. U26G C63A: the self-cleavage is 0.581. The figure for U26G C63U is 0.893.

Regarding U26G U69G, the self-cleavage was found to be 1. To U26G U69C belongs 1.04. To U26G U69A belongs 1. The figure for C27G G56C is 0.135; for C27U C35U it is 0.318. C27U C35A: the self-cleavage is 0.158. To U26G C66G belongs 0.693; to U26C G47U, 1.01.

U26C G47C: the self-cleavage came out at 0.978.

C27A A51U: the self-cleavage is 0.577. For the variant C27G G37C, the self-cleavage worked out at 0.162. To C27G A51G belongs 0.217; to C27G A51U, 0.15; to U26G C27G, 0.34.

Regarding U26G C27U, the self-cleavage is 0.605.

On to C27G U64G, for which the self-cleavage was 0.25. In the case of C27G U64A, the self-cleavage was 0.215. Turning to C27G G28C, the self-cleavage worked out at 0.13. As to C27G G28U, the self-cleavage worked out at 0.154. To C27U C34A belongs 0.201; to C27U C34U, 0.415; to C27A G28U, 0.187. In the case of C27A G28A, the self-cleavage stood at 0.18. Regarding C27A G28C, the self-cleavage was 0.158.

Take C27A U36C: the self-cleavage is 0.261. As to C27A U36G, the self-cleavage is 0.146.

Consider U26G G47C, for which the self-cleavage worked out at 0.965. To C27A U55C belongs 0.272; to C27A U55G, 0.226. Consider C27A U55A, for which the self-cleavage was determined as 0.237. To U26G C35G belongs 0.241; to U26G C35A, 0.184; to C27U C32A, 0.227. As to C27U C32U, the self-cleavage is 0.403. In the case of C27U C32G, the self-cleavage is 0.186.

Turning to C27A A40C, the self-cleavage amounted to 0.256.

(Values after the RNAGym collection of RNA variant scans (doi:10.7554/elife.80360).)
